Positions count from the first letter of the chain named.
B1: 94 (protein)
chain: LDNGLARTPTMGWLHWERFMCNLDCQEEPDSCISEKLFMEMAELMVSEGWKDAGYEYLCIDDCWMAPQRDSEGRLQADPQRFPHGIRQLANYVHSKGLKFGIYADVGNKTCAGFPGSFGYYDIDAQTFADWGVDLLKFDGCYCDSLENLADGYKHMSLALNRTGRSIVYSCEWPLYMWPFQKPNYTEIRQYCNHWRNFADIDDSWKSIKSILDWTSFNQERIVDVAGPGGWNDPDMLVIGNFGLSWNQQVTQMALWAIMAAPLFMSNDLRHISPQAKALLQDKDVIAINQDPLGKQGYQLRQGDNFEVWERPLSGLAWAVAMINRQEIGGPRSYTIAVASLGKGVACNPACFITQLLPVKRKLGFYEWTSRLRSHINPTGTVLLQLENTMQMSKDLLL
modifications: Synthetic Polypeptide sequence of Variant No. 94 of mature Human GLA
B2: 101 (protein)
chain: B1 chain with F100L, L316D
modifications: Synthetic Polypeptide sequence of Variant No. 101 of mature Human GLA
B3: 102 (protein)
chain: B1 chain with F100L, L316E
modifications: Synthetic Polypeptide sequence of Variant No. 102 of mature Human GLA
B4: 98 (protein)
chain: B1 chain with F100L, L158R
modifications: Synthetic Polypeptide sequence of Variant No. 98 of mature Human GLA
B5: 106 (protein)
chain: B1 chain with F100L, K394R
modifications: Synthetic Polypeptide sequence of Variant No. 106 of mature Human GLA
B6: 96 (protein)
chain: B1 chain with F100L, L158I
modifications: Synthetic Polypeptide sequence of Variant No. 96 of mature Human GLA
B7: 99 (protein)
chain: B1 chain with L23M, F100L
modifications: Synthetic Polypeptide sequence of Variant No. 99 of mature Human GLA
B8: 104 (protein)
chain: B1 chain with F100L, L386V
modifications: Synthetic Polypeptide sequence of Variant No. 104 of mature Human GLA
B9: 100 (protein)
chain: B1 chain with L23T, F100L
modifications: Synthetic Polypeptide sequence of Variant No. 100 of mature Human GLA
B10: 107 (protein)
chain: B1 chain with F100L, K394S
modifications: Synthetic Polypeptide sequence of Variant No. 107 of mature Human GLA
B11: 105 (protein)
chain: B1 chain with F100L, K394A
modifications: Synthetic Polypeptide sequence of Variant No. 105 of mature Human GLA
B12: 103 (protein)
chain: B1 chain with F100L, L384F
modifications: Synthetic Polypeptide sequence of Variant No. 103 of mature Human GLA
B13: 95 (protein)
chain: B1 chain with F100L, L158A
modifications: Synthetic Polypeptide sequence of Variant No. 95 of mature Human GLA
B14: 108 (protein)
chain: B1 chain with F100L, K394T
modifications: Synthetic Polypeptide sequence of Variant No. 108 of mature Human GLA
B15: 33 (protein)
chain: B1 chain with F100L, A199H, E367S
modifications: Synthetic Polypeptide sequence of Variant No. 33 of mature Human GLA
B16: 97 (protein)
chain: B1 chain with F100L, L158M
modifications: Synthetic Polypeptide sequence of Variant No. 97 of mature Human GLA

Key:
Type in all cases: biochemical
[1] = HTP-analysis of yeast culture supernatants, no challenge (MUGal hydrolysis); settings: activity of the variant/activity of WT GLA (SEQ ID NO: 5), yeast supernatant
Summary of the method: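 Activity read as 4-methylumbelliferyl α-D-galactopyranoside hydrolysis: fluorescence (355/448 nm) after sodium carbonate stop, following 30-180 min at 37° C with 2 mM MUGal stock at pH 4.6–4.8. Enzyme source is unchallenged culture supernatant of INVSc1 yeast expressing GLA variants, grown 66-84 h at 30° C.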

[2] = HTP-analysis of supernatants pretreated with base (MUGal hydrolysis); settings: challenge at pH 7.1; activity of the variant/activity of WT GLA (SEQ ID NO: 5); yeast supernatant
Summary of the method: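 GLA variants secreted from yeast INVSc1; culture supernatants pre-incubated with McIlvaine buffer pH 7.0–8.2 or 200 mM bicarbonate pH 9.1–9.7 at 37° C. for 1–18 h. Residual activity: MUGal (4 mM stock) hydrolysis at pH 4.3–4.8, 37° C., 30–180 min, carbonate quench; fluorescence Ex 355/Em 448 nm.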

[3] = HTP-analysis of supernatants pretreated with acid (MUGal hydrolysis); settings: challenge at pH 4.2; activity of the variant/activity of WT GLA (SEQ ID NO: 5); yeast supernatant
Summary of the method: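 GLA variants were secreted from INVSc1 yeast grown 66-84 h at 30° C. in SD-Ura with 2% glucose; supernatants were mixed with McIlvaine buffer pH 3.3-4.3 and held at 37° C. for 1-3 h. Residual activity on MUGal at pH 4.8 was then measured by fluorescence.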

Molecule	Relative Activity of GLA Variants After No Challenge (NC) [1]	Relative Activity of GLA Variants After Challenge at pH 7.1 [2]	Relative Activity of GLA Variants After Challenge at pH 4.2 [3]
B1	+ (+ = 0.5 to 1.5 relative activity over WT GLA (SEQ ID NO: 5))	+ (+ = 0.5 to 1.5 relative activity over WT GLA (SEQ ID NO: 5))	+ (+ = 0.5 to 1.5 relative activity over WT GLA (SEQ ID NO: 5))
B2	+++ (+++ = >2.5 relative activity over WT GLA (SEQ ID NO: 5))	+++ (+++ = >2.5 relative activity over WT GLA (SEQ ID NO: 5))	+++ (+++ = >2.5 relative activity over WT GLA (SEQ ID NO: 5))
B3	+++ (+++ = >2.5 relative activity over WT GLA (SEQ ID NO: 5))	+++ (+++ = >2.5 relative activity over WT GLA (SEQ ID NO: 5))	+++ (+++ = >2.5 relative activity over WT GLA (SEQ ID NO: 5))
B4	+ (+ = 0.5 to 1.5 relative activity over WT GLA (SEQ ID NO: 5))	+ (+ = 0.5 to 1.5 relative activity over WT GLA (SEQ ID NO: 5))	+ (+ = 0.5 to 1.5 relative activity over WT GLA (SEQ ID NO: 5))
B5	++ (++ = >1.5 to 2.5 relative activity over WT GLA (SEQ ID NO: 5))	+++ (+++ = >2.5 relative activity over WT GLA (SEQ ID NO: 5))	++ (++ = >1.5 to 2.5 relative activity over WT GLA (SEQ ID NO: 5))
B6	+ (+ = 0.5 to 1.5 relative activity over WT GLA (SEQ ID NO: 5))	+ (+ = 0.5 to 1.5 relative activity over WT GLA (SEQ ID NO: 5))	+ (+ = 0.5 to 1.5 relative activity over WT GLA (SEQ ID NO: 5))
B7	+ (+ = 0.5 to 1.5 relative activity over WT GLA (SEQ ID NO: 5))	+ (+ = 0.5 to 1.5 relative activity over WT GLA (SEQ ID NO: 5))	+ (+ = 0.5 to 1.5 relative activity over WT GLA (SEQ ID NO: 5))
B8	++ (++ = >1.5 to 2.5 relative activity over WT GLA (SEQ ID NO: 5))	++ (++ = >1.5 to 2.5 relative activity over WT GLA (SEQ ID NO: 5))	++ (++ = >1.5 to 2.5 relative activity over WT GLA (SEQ ID NO: 5))
B9	+ (+ = 0.5 to 1.5 relative activity over WT GLA (SEQ ID NO: 5))	+ (+ = 0.5 to 1.5 relative activity over WT GLA (SEQ ID NO: 5))	+ (+ = 0.5 to 1.5 relative activity over WT GLA (SEQ ID NO: 5))
B10	+++ (+++ = >2.5 relative activity over WT GLA (SEQ ID NO: 5))	+++ (+++ = >2.5 relative activity over WT GLA (SEQ ID NO: 5))	+++ (+++ = >2.5 relative activity over WT GLA (SEQ ID NO: 5))
B11	+++ (+++ = >2.5 relative activity over WT GLA (SEQ ID NO: 5))	++ (++ = >1.5 to 2.5 relative activity over WT GLA (SEQ ID NO: 5))	++ (++ = >1.5 to 2.5 relative activity over WT GLA (SEQ ID NO: 5))
B12	++ (++ = >1.5 to 2.5 relative activity over WT GLA (SEQ ID NO: 5))	++ (++ = >1.5 to 2.5 relative activity over WT GLA (SEQ ID NO: 5))	++ (++ = >1.5 to 2.5 relative activity over WT GLA (SEQ ID NO: 5))
B13	+ (+ = 0.5 to 1.5 relative activity over WT GLA (SEQ ID NO: 5))	+ (+ = 0.5 to 1.5 relative activity over WT GLA (SEQ ID NO: 5))	+ (+ = 0.5 to 1.5 relative activity over WT GLA (SEQ ID NO: 5))
B14	+++ (+++ = >2.5 relative activity over WT GLA (SEQ ID NO: 5))	+++ (+++ = >2.5 relative activity over WT GLA (SEQ ID NO: 5))	+++ (+++ = >2.5 relative activity over WT GLA (SEQ ID NO: 5))
B15	+ (+ = 0.5 to 1.5 relative activity over WT GLA (SEQ ID NO: 5))	+ (+ = 0.5 to 1.5 relative activity over WT GLA (SEQ ID NO: 5))	+ (+ = 0.5 to 1.5 relative activity over WT GLA (SEQ ID NO: 5))
B16	+ (+ = 0.5 to 1.5 relative activity over WT GLA (SEQ ID NO: 5))	+ (+ = 0.5 to 1.5 relative activity over WT GLA (SEQ ID NO: 5))	+ (+ = 0.5 to 1.5 relative activity over WT GLA (SEQ ID NO: 5))
